Laboratory results published in patent publication US11529424B2, “Synthetic bioconjugates” (Symic Holdings, Inc., priority 2017, dated 2022).
Several values for one entry are separate records, joined by “and”; a condition that tells them apart may be missing. Identical values can stand only once. Entries after “also recorded” stand apart in the source; their conditions may differ. Like-named read-outs stand apart in the source and are kept apart here. Ends that are not written are not given here. * marks the point of attachment. NHNH2 = NN*

How the values were obtained:
collagen = assay: Collagen-binding plate assay; details: for collagen binding EC50: compared to the EC50 for Compound 4
Procedure: The following method is used to assess the binding affinity of bioconjugates disclosed herein for collagen.
Collagen-binding of bioconjugate variants is compared by a plate-assay, in which collagen is coated on 96-well plates. Collagen is coated on high-bind plates at 50 μg/mL in 0.02 N acetic acid for 1 hour at room temperature. Unbound collagen is rinsed with 1×PBS pH 7.4. Plates are then blocked in 1% milk in 1×PBS solution for 1 hour at room temperature.
Bioconjugate variants containing biotinlyated peptides are dissolved to a final concentration of 1 mg/mL in 1% milk in 1×PBS pH 7.4. From this solution, a 10× serial dilution is performed. Molecules are then incubated on the blocked collagen-coated plates and incubated for 15 minutes at room temperature. Plates are then rinsed 3 times with 1×PBS in 1% BSA and 0.2% Tween20.
Bound molecules are detected by streptavidin-HRP, which was diluted 1:500 in 1× PBS with 1% BSA and 0.2% Tween20 and incubated 200 μL/well for 20 minutes at room temperature. Streptavidin solution is rinsed from the plates 3 times with 1×PBS with 0.2% Tween20. TMB Substrate solution is then added to each well 100 μL/well for 15 minutes at room temperature, and the color evolution was stopped with 100 μL sulfuric acid solution (0.16 M). Absorbance in the well is then measured at 450 nm and binding affinity plotted in a dose-response by absorbance vs. concentration.
This method was used to compare collagen binding affinity of various collagen-binding bioconjugates by comparing EC50 values. More specifically, the EC50 values for each bioconjugate was compared to the EC50 for Compound 4.

Collagen Type I = Collagen Type I (Homo sapiens, UniProt P02452+P08123); assay: Collagen Binding Assay 2; details: with GSGSGSRR spacer versus binding domain without spacer and spacer alone, FIG. 18 and 19
Chain of Collagen Type I (P02452 162-1218 limits assumed): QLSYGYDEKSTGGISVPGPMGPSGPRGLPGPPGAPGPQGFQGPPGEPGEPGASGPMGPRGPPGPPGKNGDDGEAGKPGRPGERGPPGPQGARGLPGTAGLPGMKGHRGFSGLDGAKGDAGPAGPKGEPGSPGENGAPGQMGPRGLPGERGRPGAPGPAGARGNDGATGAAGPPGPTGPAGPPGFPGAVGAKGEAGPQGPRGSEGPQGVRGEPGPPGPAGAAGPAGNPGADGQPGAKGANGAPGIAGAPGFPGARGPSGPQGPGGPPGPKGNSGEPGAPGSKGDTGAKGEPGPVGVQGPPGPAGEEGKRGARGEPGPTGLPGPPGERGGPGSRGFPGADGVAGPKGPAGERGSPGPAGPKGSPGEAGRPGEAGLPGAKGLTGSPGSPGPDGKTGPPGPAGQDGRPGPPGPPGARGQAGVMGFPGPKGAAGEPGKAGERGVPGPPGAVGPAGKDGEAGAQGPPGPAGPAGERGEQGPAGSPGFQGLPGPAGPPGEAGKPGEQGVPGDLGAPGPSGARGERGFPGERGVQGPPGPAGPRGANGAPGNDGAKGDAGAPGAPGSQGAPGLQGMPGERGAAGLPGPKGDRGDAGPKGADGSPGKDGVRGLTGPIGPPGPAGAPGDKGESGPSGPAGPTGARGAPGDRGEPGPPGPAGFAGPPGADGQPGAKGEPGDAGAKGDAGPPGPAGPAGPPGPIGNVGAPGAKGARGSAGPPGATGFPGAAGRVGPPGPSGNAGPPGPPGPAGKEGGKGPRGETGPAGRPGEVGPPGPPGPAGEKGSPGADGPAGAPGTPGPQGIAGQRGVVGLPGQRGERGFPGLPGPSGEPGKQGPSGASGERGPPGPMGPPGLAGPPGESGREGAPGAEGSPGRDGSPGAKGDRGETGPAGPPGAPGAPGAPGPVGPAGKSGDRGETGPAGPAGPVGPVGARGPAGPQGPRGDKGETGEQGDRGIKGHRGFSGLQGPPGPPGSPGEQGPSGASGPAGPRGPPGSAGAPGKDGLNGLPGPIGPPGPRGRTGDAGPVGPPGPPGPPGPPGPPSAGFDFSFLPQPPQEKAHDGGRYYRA
Chain of Collagen Type I (P08123 80-1119 limits assumed): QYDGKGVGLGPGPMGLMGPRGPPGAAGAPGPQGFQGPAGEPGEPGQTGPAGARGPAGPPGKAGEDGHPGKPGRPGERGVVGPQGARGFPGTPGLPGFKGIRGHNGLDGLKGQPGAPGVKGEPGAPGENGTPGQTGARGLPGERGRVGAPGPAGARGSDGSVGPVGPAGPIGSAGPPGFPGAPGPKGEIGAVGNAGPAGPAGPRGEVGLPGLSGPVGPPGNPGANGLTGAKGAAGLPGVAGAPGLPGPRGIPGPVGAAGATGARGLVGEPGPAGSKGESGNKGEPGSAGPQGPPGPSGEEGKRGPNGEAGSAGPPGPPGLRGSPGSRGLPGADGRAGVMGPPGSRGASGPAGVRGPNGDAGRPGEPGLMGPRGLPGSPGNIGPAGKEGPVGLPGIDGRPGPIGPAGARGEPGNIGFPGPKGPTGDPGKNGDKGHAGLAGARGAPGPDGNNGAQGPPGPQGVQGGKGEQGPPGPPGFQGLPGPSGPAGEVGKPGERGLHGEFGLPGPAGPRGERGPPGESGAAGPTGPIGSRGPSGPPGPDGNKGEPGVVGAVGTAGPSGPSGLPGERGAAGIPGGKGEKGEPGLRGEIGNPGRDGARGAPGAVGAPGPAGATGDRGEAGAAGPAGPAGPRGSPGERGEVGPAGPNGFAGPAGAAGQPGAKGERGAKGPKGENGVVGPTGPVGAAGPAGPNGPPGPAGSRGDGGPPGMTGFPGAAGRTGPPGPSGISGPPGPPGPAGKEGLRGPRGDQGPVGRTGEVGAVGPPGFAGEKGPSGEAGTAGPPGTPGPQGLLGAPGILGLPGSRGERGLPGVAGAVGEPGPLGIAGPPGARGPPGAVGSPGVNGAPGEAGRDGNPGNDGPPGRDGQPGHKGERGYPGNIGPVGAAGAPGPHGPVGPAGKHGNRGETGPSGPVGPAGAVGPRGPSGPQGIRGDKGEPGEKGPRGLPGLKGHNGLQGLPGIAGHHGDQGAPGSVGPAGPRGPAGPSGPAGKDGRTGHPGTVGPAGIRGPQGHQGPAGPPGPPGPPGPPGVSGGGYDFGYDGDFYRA
Procedure: GQLYKSILYGSGSGSRR (SEQ ID NO: 6) (Compound 10) was evaluated for binding affinity against the GQLYKSILYGSG (SEQ ID NO: 59) (Peptide X) binding domain without spacer and against the spacer sequence alone, GSGSGSRR (SEQ ID NO: 4) (Spacer A), results shown in FIG. 18. […] WREPSFSALS (SEQ ID NO: 8), also known as vWF-2× due to its binding to the von Willebran binding site on collagen, was evaluated for binding affinity with and without the GSGSGSRR (SEQ ID NO: 4) spacer.
50 μg/ml of Collagen Type I was adsorbed onto high bind plates by incubating overnight. Plates were then washed with PBS and blocked using 1% Non-fat milk in PBS for 1 hour. Molecule dilutions were prepared in 1% BSA in PBS and then incubated for 1 hour at 25° C. Plates were then washed with PBS containing 0.05% Tween 20. A 1:500 dilution of Streptavidin-HRP in 1% BSA PBS was prepared and added to the plates for 20 minutes. Plates were then washed with PBS and TMB solution was added for 10 minutes for color development. The color development was stopped using 0.16 M sulfuric acid and absorbance at […] was measured using a plate reader. Compound 10 was used as a reference standard for all EC50 results.

[1] = test system: platelet binding to Type I fibrillar collagen; assay: Platelet aggregation: platelet binding to collagen under flow; assay type: cell-based; details: 2 mg/mL on collagen-coated slides, human whole blood, sheer rate 1000 s−1, 10 minutes; compared to Compound 1
Procedure: Type I fibrillar collagen was adsorbed to Ibidi μ-slides by overnight incubation at 2-8° C. The Ibidi μ-slides were rinsed with Phosphate Buffer Saline (PBS), and then blocked with 1% BSA in 1×PBS. Compound 10 (shown in FIG. 12B) and Compound 1 at 2 mg/mL (shown in 12A) were applied to Ibidi μ-slides and left to incubate. After 1 hour excess conjugates were rinsed away with 1×PBS. Freshly drawn human whole blood was prestained with Calcein AM (Live Fluorescent cell marker). Blood was pumped across the channels at a sheer rate of 1000 s−1 using a syringe pump for 10 minutes. As blood flows across the Ibidi μ-Slides, Fluorescent microscope was used to take images of aggregated fluorescently labeled platelets.

[2] = test system: mouse model of Non-Alcoholic Steatohepatitis (NASH); assay: Non-Alcoholic Steatohepatitis (NASH) mouse model, liver collagen by Sirius Red; assay type: in vivo, C57BL/6 mice; details: week 5 to week 9; Compound 10 3×/week intravenous, Telmisartan daily oral; compared to the vehicle treated group
Procedure: The ability of the compounds to affect liver fibrosis was tested in a mouse model of Non-Alcoholic Steatohepatitis (NASH). C57BL/6 mice received a single subcutaneous injection of 200 μg streptozotocin after birth. Beginning at 4 weeks of age, animals were fed a high fat diet. […] A separate group of animals received daily oral administration of Telmisartan during the same period Animals were sacrificed at 9 weeks of age and the livers were collected for histological and biochemical analysis. Histological analysis of the livers for collagen content was performed using Sirius Red staining.

[3] = biological target: collagen (coated on 96-well plates, Example 2); assay: collagen-coated 96-well plate, biotin-labelled bioconjugate, streptavidin-HRP/TMB, absorbance at 450 nm (Example 2)
[4] = biological target: collagen (coated on 96-well plates, Example 2); assay: collagen-coated 96-well plate, biotin-labelled bioconjugate, streptavidin-HRP/TMB, absorbance at 450 nm (Example 2), the concentration axis is in ug/ml
[5] = biological target: collagen (coated on 96-well plates, Example 2); assay: collagen-coated 96-well plate, biotin-labelled bioconjugate, streptavidin-HRP/TMB, absorbance at 450 nm (Example 2); Kd unit inferred, the concentration axis is in ug/ml
[6] = biological target: collagen (coated on 96-well plates, Example 2); assay: collagen-coated 96-well plate, biotin-labelled bioconjugate, streptavidin-HRP/TMB, absorbance at 450 nm (Example 2); remark: listed apart in the source

“Compound 8: heparin bioconjugate with peptide GQLYKSILYGSRGSG-NHNH2 (Peptide 8), 1:8 glycan to peptide (also: heparin bioconjugate, 1:8 glycan to peptide, attachment site not given here)” was tested. Which “collagen binding EC50” value (collagen) did it give?
The value was “increases EC50; also recorded: slightly increases EC50”.

For “WREPSFSALSGSGSGSRR [WREPSFSALSGSGSGSRR (SEQ ID NO: 110)]”, which collagen binding affinity (Collagen Type I) is on record?
The collagen binding affinity was “increase in binding affinity”.

Which results are given for “Compound 10: heparin bioconjugate with peptide GQLYKSILYGSGSGSRR-NHNH2 (Peptide 10), 1:8 glycan to peptide (also: heparin bioconjugate, 1:8 glycan to peptide, attachment site not given here)”?
collagen binding EC50 (collagen): decreases the EC50; platelet binding to Type I fibrillar collagen [1]: inhibits platelet binding to Type I fibrillar collagen; levels of collagen in the liver (Sirius Red staining) [2]: decreased levels of collagen in the liver; collagen binding affinity (Collagen Type I): greater binding affinity than the binding domain or the spacer in isolation

With “Compound 4: heparin bioconjugate with peptide GQLYKSILYGSGRRGSG-NHNH2 (Peptide 4), 1:8 glycan to peptide (also: heparin bioconjugate, 1:8 glycan to peptide, attachment site not given here)” as the molecule, how does the “collagen binding affinity (Kd)” value (collagen; compared to Compound 5 and Compound 3, FIG. 11) read?
Its value is “significant increase in collagen binding affinity (lower Kd)”.

`CCCc1nc2c(C)cc(-c3nc4ccccc4n3C)cc2n1Cc1ccc(-c2ccccc2C(=O)O)cc1` [Telmisartan, reference compound] was tested. Which “levels of collagen in the liver (Sirius Red staining)” value [2] did it give?
The value was “decreased levels of collagen in the liver”.

B1: Compound 19 (heparin bioconjugate of (…)2-KRRGSG-NHNH2) (peptide)
peptide 1: RVMHGLHLGDDEGSG
peptide 2: KRRGSG
modifications: not fully specified (C-terminus); printed as (RVMHGLHLGDDEGSG)2-KRRGS; also: two copies of chain 1 bonded to the N-terminal branching lysine of chain 2, about 3 branched peptides per heparin (16 kDa)
With B1 as the molecule, how does the EC50 (read off the curve) [3] read?
Its EC50 (read off the curve) is 100 µg/mL.

B2: Compound 9 (heparin bioconjugate of …-NHNH2) (peptide)
peptide: GQLYKSILYRRGSGSGS
modifications: not fully specified; C-terminal hydrazide (-NHNH-) bonded to a carboxyl of heparin; part of the peptides biotin-labelled
How did the EC50 (read off the curve) [3] turn out when B2 was run?
The EC50 (read off the curve) was 50 µg/mL.

B3: Compound 6 (peptide)
peptide conjugated to heparin: GQLYKSILYGSRGRGSG
modifications: not fully specified; C-terminal hydrazide (-NHNH2) coupled to heparin; part of the peptides biotin-labelled
B3 was tested. Which EC50 [4] did it give?
The EC50 was 63.3 µg/mL.

B4: Compound 3 (heparin bioconjugate of …-NHNH2) (peptide)
peptide: GQLYKSILYGSG
modifications: not fully specified; C-terminal hydrazide (-NHNH-) bonded to a carboxyl of heparin; part of the peptides biotin-labelled
How did the Kd [5] turn out when B4 was run?
Its Kd is 112 µg/mL.

B5: Compound 10 (heparin bioconjugate of …-NHNH2) (peptide)
peptide: GQLYKSILYGSGSGSRR
modifications: not fully specified; C-terminal hydrazide (-NHNH-) bonded to a carboxyl of heparin; part of the peptides biotin-labelled
For B5, which EC50 (read off the curve) [3] is on record?
Its EC50 (read off the curve) is 20 µg/mL.

What about the EC50 [4] of the same molecule?
Its EC50 is 15 µg/mL.

B6: Compound 4 (heparin bioconjugate of …-NHNH2) (peptide)
peptide: GQLYKSILYGSGRRGSG
modifications: not fully specified; C-terminal hydrazide (-NHNH-) bonded to a carboxyl of heparin; part of the peptides biotin-labelled
How did the EC50 (read off the curve) [3] turn out when B6 was run?
Its EC50 (read off the curve) is 50 µg/mL.

What about the EC50 (read off the curve) [6] of the same molecule?
Its EC50 (read off the curve) is 40 µg/mL.

What about the EC50 [4] of the same molecule?
Its EC50 is 40.4 µg/mL and 32.1 µg/mL.

And the Kd [5]?
The Kd was 42.5 µg/mL.

Which EC50 (read off the curve) [3] does the source give for GQLYKSILYGSGKKGSG (also: conjugated to heparin) [Compound 14 (heparin bioconjugate of …)] here?
The EC50 (read off the curve) was 60 µg/mL.

B7: Compound 12 (heparin bioconjugate of …-NHNH2) (peptide)
peptide: GQLYKSILYGSGRRRGSG
modifications: not fully specified; C-terminal hydrazide (-NHNH-) bonded to a carboxyl of heparin; part of the peptides biotin-labelled
With B7 as the molecule, how does the EC50 (read off the curve) [3] read?
The EC50 (read off the curve) was 30 µg/mL.

B8: Compound 20 (peptide)
peptide conjugated to heparin: GSGGQLYKSILY
modifications: not fully specified (N-terminus); also: part of the peptides biotin-labelled, heparin backbone average 16 kDa
B8 was tested. Which Kd [5] did it give?
The Kd was 35.1 µg/mL.

B9: Compound 5 (heparin bioconjugate of …-NHNH2) (peptide)
peptide: GQLYKSILYGSGSGSGS
modifications: not fully specified; C-terminal hydrazide (-NHNH-) bonded to a carboxyl of heparin; part of the peptides biotin-labelled
How did the Kd [5] turn out when B9 was run?
Its Kd is 103 µg/mL and 113 µg/mL.

B10: Compound 8 (heparin bioconjugate of …-NHNH2) (peptide)
peptide: GQLYKSILYGSRGSG
modifications: not fully specified; C-terminal hydrazide (-NHNH-) bonded to a carboxyl of heparin; part of the peptides biotin-labelled
With B10 as the molecule, how does the EC50 (read off the curve) [6] read?
The EC50 (read off the curve) was 60 µg/mL.

What about the EC50 [4] of the same molecule?
Its EC50 is 47.1 µg/mL.

B11: Compound 7 (peptide)
peptide conjugated to heparin: GQLYKSILYGRSGRGSG
modifications: not fully specified; C-terminal hydrazide (-NHNH2) coupled to heparin; part of the peptides biotin-labelled
With B11 as the molecule, how does the EC50 [4] read?
The EC50 was 44.2 µg/mL.

B12: Compound 13 (heparin bioconjugate of …-NHNH2) (peptide)
peptide: GQLYKSILYGSGRGSGSGSG
modifications: not fully specified (C-terminus); printed as GQLYKSILYGSGRGSGSGSG-; also: about 5 peptides per heparin (16 kDa), part of the peptides biotin-labelled
Which EC50 (read off the curve) [3] does the source give for B12 here?
Its EC50 (read off the curve) is 60 µg/mL.

B13: Compound 11 (heparin bioconjugate of …-NHNH2) (peptide)
peptide: GQLYKSILYGSRRGS
modifications: not fully specified; C-terminal hydrazide (-NHNH-) bonded to a carboxyl of heparin; part of the peptides biotin-labelled
B13 was tested. Which EC50 (read off the curve) [6] did it give?
The EC50 (read off the curve) was 50 µg/mL.
